± gives the uncertainty stated by the source.
Experiment: self-splicing fitness, log relative to wild type (ln ratio); higher = more splicing; Tetrahymena group I intron in knt gene, E. coli kanamycin selection, DiMSum; sequences stand for … in CUCUCU…GGAGGGAAAAGUUAUCAGGCAUGCACCUGGUAGCUAGUCUUUAAACCAAUAGAUUGCAUCGGUUUAAAAGGCAAGACCGUCAAAUUGCGGGAAAGGGGUCAACAGCCGUUCAGUACCAAGUCUCAGGGGAAACUUUGAGAUGGCCUUGCAAAGGGUAUGGUAAUAAGCUGACGGACAUGGUCCUAACCACGCAGCCAAGUCCUAAGUCAACAGAUCUUCUGUUGAUAUGGAUGCAGUUCACAGACUAAAUGUCGGUCGGGGAAGAUGUAUUCUUCUCAUAAGAUAUAGUCGGACCUCUCCUUAAUGGGAGCUAGCGGAUGAAGUGAUGCAACACUGGAGCCGCUGGGAACUAAUUUGUAUGCGAAAGUAUAUUGAUUAGUUUUGGAGUACUCGUGGUCG
Procedure, shortened: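 A randomised library covering all eight P1ex-region intron nucleotides was built with the intron in the knt kanamycin-resistance gene on pET-22b(+) and held in E. coli BL21(DE3). Cells were grown overnight at 37°C or 30°C on LB agar, with or without 25 μg/mL kanamycin, plus 100 μg/mL carbenicillin, 50 μM IPTG and 0.2% rhamnose, and pooled colonies were amplicon-sequenced on an Illumina HiSeq 2500. DiMSum fitness is the error-weighted combination of wild-type-normalised replicate fold changes, kanamycin versus none.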

| Sequence | self-splicing fitness (ln) (30 °C) | self-splicing fitness (ln) (37 °C) |
| --- | --- | --- |
| GUCCAGCAAUAUUACGCGCG | -1.58 ± 0.093 | -0.665 ± 0.096 |
| GUCCAGCAAUAUUACGCGGU | -3.19 ± 0.24 | -2.14 ± 0.17 |
| GUCCAGCAAUAUUACGCUGC | -1.85 ± 0.34 | 0.221 ± 0.36 |
| GUCCAGCAAUAUUACGCUUC | -1.38 ± 0.083 | -0.138 ± 0.11 |
| GUCCAGCAAUAUUACGGAGC | -2.17 ± 0.087 | -2.68 ± 0.088 |
| GUCCAGCAAUAUUACGGAUC | -4.49 ± 0.28 | -3.62 ± 0.27 |
| GUCCAGCAAUAUUACGGCUA | -0.25 ± 0.068 | 0.143 ± 0.073 |
| GUCCAGCAAUAUUACGGGGU | -3.62 ± 0.19 | -2.65 ± 0.15 |
| GUCCAGCAAUAUUACGUAUC | -0.611 ± 0.096 | -0.264 ± 0.11 |
| GUCCAGCAAUAUUACGUGCG | -1.15 ± 0.085 | -1.14 ± 0.12 |
| GUCCAGCAAUAUUACGUGGU | -1.61 ± 0.059 | -1.03 ± 0.064 |
| GUCGAGCAAUAUUACGAAGC | -2.37 ± 0.19 | -1.85 ± 0.23 |
| GUCGAGCAAUAUUACGACAC | -0.476 ± 0.2 | -1.13 ± 0.17 |
| GUCGAGCAAUAUUACGACCA | – | -0.961 ± 0.42 |
| GUCGAGCAAUAUUACGACCG | -1.69 ± 0.5 | – |
| GUCGAGCAAUAUUACGAGGC | -3.01 ± 0.21 | -3.06 ± 0.31 |
| GUCGAGCAAUAUUACGCGAU | -3.36 ± 0.27 | – |
| GUCGAGCAAUAUUACGCGUC | -1.43 ± 0.15 | -2.49 ± 0.2 |
| GUCGAGCAAUAUUACGCUAA | – | -1.5 ± 0.2 |
| GUCGAGCAAUAUUACGGACA | -1.8 ± 0.49 | -1.95 ± 0.47 |
| GUCGAGCAAUAUUACGGCAA | -3.13 ± 0.31 | -1.76 ± 0.29 |
| GUCGAGCAAUAUUACGGUUA | -2.03 ± 0.49 | 0.142 ± 0.25 |
| GUCGAGCAAUAUUACGUCGA | -3.97 ± 0.42 | -2.65 ± 0.44 |
| GUCGAGCAAUAUUACGUGCA | -2.29 ± 0.22 | -0.701 ± 0.17 |
| GUCGAGCAAUAUUACGUUGU | – | -2.78 ± 0.37 |
| GUCUAGCAAUAUUACGAACU | -1.9 ± 0.2 | -1.12 ± 0.19 |

| Sequence | self-splicing fitness (ln) (30 °C) | self-splicing fitness (ln) (37 °C) |
| --- | --- | --- |
| GUCUAGCAAUAUUACGACGC | -0.0791 ± 0.12 | 0.364 ± 0.14 |
| GUCUAGCAAUAUUACGACGU | -0.253 ± 0.15 | 0.696 ± 0.17 |
| GUCUAGCAAUAUUACGACUC | -0.625 ± 0.13 | -0.52 ± 0.15 |
| GUCUAGCAAUAUUACGAGCU | -2.17 ± 0.33 | -0.962 ± 0.23 |
| GUCUAGCAAUAUUACGAUUA | -0.177 ± 0.17 | 0.177 ± 0.12 |
| GUCUAGCAAUAUUACGCAGU | -1.25 ± 0.13 | 0.0079 ± 0.15 |
| GUCUAGCAAUAUUACGCGGG | -3.1 ± 0.19 | -1.98 ± 0.17 |
| GUCUAGCAAUAUUACGCUCC | -1.44 ± 0.18 | 0.66 ± 0.2 |
| GUCUAGCAAUAUUACGCUGG | -2.84 ± 0.36 | -2.2 ± 0.27 |
| GUCUAGCAAUAUUACGCUUU | -0.366 ± 0.066 | -0.192 ± 0.08 |
| GUCUAGCAAUAUUACGGAUG | -1.93 ± 0.2 | 0.0916 ± 0.19 |
| GUCUAGCAAUAUUACGGGAU | -4.48 ± 0.42 | -3.39 ± 0.42 |
| GUCUAGCAAUAUUACGGUGU | -0.578 ± 0.046 | -0.0594 ± 0.06 |
| GUCUAGCAAUAUUACGUAGG | -0.837 ± 0.14 | -0.942 ± 0.21 |
| GUCUAGCAAUAUUACGUCCG | -2.96 ± 0.28 | -0.525 ± 0.19 |
| GUCUAGCAAUAUUACGUCGA | -2.12 ± 0.14 | -0.957 ± 0.13 |
| GUCUAGCAAUAUUACGUUUU | -1.2 ± 0.08 | -0.759 ± 0.084 |
| GUGAAGCAAUAUUACGACCA | -0.647 ± 0.18 | 0.84 ± 0.19 |
| GUGAAGCAAUAUUACGAGUG | -0.702 ± 0.094 | -0.702 ± 0.13 |
| GUGAAGCAAUAUUACGAGUU | -2.5 ± 0.12 | -1.14 ± 0.15 |
| GUGAAGCAAUAUUACGAUCG | -0.499 ± 0.097 | 0.218 ± 0.1 |
| GUGAAGCAAUAUUACGCAAG | -0.985 ± 0.09 | 0.0285 ± 0.1 |
| GUGAAGCAAUAUUACGCAUG | -1.5 ± 0.15 | -1.23 ± 0.18 |
| GUGAAGCAAUAUUACGCGAA | -1.56 ± 0.11 | -0.479 ± 0.12 |
| GUGAAGCAAUAUUACGCGCU | -2.31 ± 0.16 | -1.47 ± 0.13 |
| GUGAAGCAAUAUUACGGAAG | -1.94 ± 0.19 | 0.825 ± 0.21 |

| Sequence | self-splicing fitness (ln) (30 °C) | self-splicing fitness (ln) (37 °C) |
| --- | --- | --- |
| GUGAAGCAAUAUUACGGAGC | -4.68 ± 0.46 | -1.38 ± 0.16 |
| GUGAAGCAAUAUUACGGCUA | -0.323 ± 0.1 | 0.322 ± 0.12 |
| GUGAAGCAAUAUUACGUAUU | -1.21 ± 0.12 | 0.0695 ± 0.12 |
| GUGAAGCAAUAUUACGUCAA | -1.07 ± 0.077 | -0.245 ± 0.084 |
| GUGAAGCAAUAUUACGUCAG | -0.462 ± 0.076 | -0.996 ± 0.08 |
| GUGAAGCAAUAUUACGUCGU | -0.585 ± 0.11 | -0.777 ± 0.12 |
| GUGAAGCAAUAUUACGUGAU | -1.97 ± 0.12 | -1.03 ± 0.14 |
| GUGAAGCAAUAUUACGUGCU | -1.99 ± 0.091 | -0.974 ± 0.1 |
| GUGAAGCAAUAUUACGUGGA | -3.07 ± 0.13 | -1.24 ± 0.15 |
| GUGAAGCAAUAUUACGUGUU | -2.74 ± 0.1 | -1.23 ± 0.085 |
| GUGAAGCAAUAUUACGUUCG | -0.236 ± 0.095 | -0.797 ± 0.1 |
| GUGCAGCAAUAUUACGACGG | – | -2.73 ± 0.34 |
| GUGCAGCAAUAUUACGAGCC | -1.65 ± 0.2 | – |
| GUGCAGCAAUAUUACGCAGG | -2.59 ± 0.12 | -3.12 ± 0.18 |
| GUGCAGCAAUAUUACGCGCU | -3.16 ± 0.48 | -1.77 ± 0.36 |
| GUGCAGCAAUAUUACGCUCA | -1.31 ± 0.1 | -0.388 ± 0.11 |
| GUGCAGCAAUAUUACGCUGC | -2.77 ± 0.18 | -2.14 ± 0.35 |
| GUGCAGCAAUAUUACGGACU | -1.28 ± 0.11 | -0.884 ± 0.14 |
| GUGCAGCAAUAUUACGGAUA | -1.76 ± 0.15 | -1.79 ± 0.19 |
| GUGCAGCAAUAUUACGGCUC | -0.0701 ± 0.085 | -0.129 ± 0.1 |
| GUGCAGCAAUAUUACGGGAU | -1.66 ± 0.066 | -1.32 ± 0.081 |
| GUGCAGCAAUAUUACGGUAA | -1.5 ± 0.18 | 0.218 ± 0.14 |
| GUGCAGCAAUAUUACGGUAG | -1.05 ± 0.057 | -0.428 ± 0.074 |
| GUGCAGCAAUAUUACGGUGU | -3.08 ± 0.11 | -1.74 ± 0.12 |
| GUGCAGCAAUAUUACGUAAU | -0.833 ± 0.06 | 0.129 ± 0.079 |
| GUGCAGCAAUAUUACGUAGA | -2.02 ± 0.087 | -0.647 ± 0.11 |

Source: the supplement of paper PMC7877785
